Source: patent US20110064751A1
pKd: −log10 of the molar value.

Tests used:
[1] = target: Extra Domain B of fibronectin (EDB) (UniProt P02751); experiment: SPR (BIACORE), EDB immobilized on the chip, construct as analyte
[2] = target: Extra Domain B of fibronectin (EDB) (UniProt P02751); experiment: BIACORE SPR, EDB immobilized on the chip, analyte at 1.56, 3.125 and 6.25 nM

L19 diabody-IL2 fusion protein, 12 amino acid linker, sequence (VH): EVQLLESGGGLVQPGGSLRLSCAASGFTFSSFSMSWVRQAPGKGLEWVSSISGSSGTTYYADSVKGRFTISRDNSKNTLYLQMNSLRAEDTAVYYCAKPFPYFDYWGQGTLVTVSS
L19 diabody-IL2 fusion protein, 12 amino acid linker, sequence (chain): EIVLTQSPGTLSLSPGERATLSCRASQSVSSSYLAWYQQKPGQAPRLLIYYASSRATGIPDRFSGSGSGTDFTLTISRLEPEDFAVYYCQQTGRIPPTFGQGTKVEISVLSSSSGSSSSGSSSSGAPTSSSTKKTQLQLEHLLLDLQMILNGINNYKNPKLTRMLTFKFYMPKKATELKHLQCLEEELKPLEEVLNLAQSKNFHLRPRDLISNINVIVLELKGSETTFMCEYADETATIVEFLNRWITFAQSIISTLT
Extra Domain B of fibronectin (EDB), sequence (P02751 1266-1356 limits assumed): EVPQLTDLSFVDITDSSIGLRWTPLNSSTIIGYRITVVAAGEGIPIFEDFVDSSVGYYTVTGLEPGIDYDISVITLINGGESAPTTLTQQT

## L19 diabody-IL2 fusion protein, 12 amino acid linker
[1]
  pKd: 9.44
[2]
  pKd: 9.44
  koff: 0.000769 s⁻¹
  kon: 2.13e+06 M⁻¹ s⁻¹
